This is an account of results in patent US20100040606A1.

pKd: −log10 of the molar value.

The experiment concerns the target RSV protein F (fusion glycoprotein), recombinant or purified (human respiratory syncytial virus, strain not stated) (UniProt P03420). The experiment is described as follows: SPR (Biacore 3000), Fab over immobilised recombinant antigen. In general terms: Surface plasmon resonance follows binding to a sensor surface in real time, without labels.

On to “Fab fragment derived from commercially available Palivizumab (Synagis)”, for which the negative-log Kd (pKd) was 8.42, the koff worked out at 0.000757 s⁻¹, the kon was found to be 200000 M⁻¹ s⁻¹ and the t1/2 came out at 15 min.

As usually defined, the pKd is the Kd on a negative log10 scale, so that one unit is a factor of ten. The koff is a measure of how fast the partners let go of each other. By kon is commonly meant the rate constant with which the complex forms.
